We go through two proteins from publication PMC11359734, “Two enzymes contribute to citrate production in the mitochondrion of Toxoplasma gondii” (The Journal of Biological Chemistry, 2024).

Substrate in data set [1]: O=C(O)CC(=O)C(=O)O
Nature of the data set: citrate synthase kit, OD412, 96-well plate. The data set is classed as biochemical, Toxoplasma gondii. Conditions: co-substrate acetyl-CoA.

Substrate in data set [2]: CC(=O)SCCNC(=O)CCNC(=O)[C@H](O)C(C)(C)COP(=O)(O)OP(=O)(O)OC[C@H]1O[C@@H](n2cnc3c(N)ncnc32)[C@H](O)[C@@H]1OP(=O)(O)O
In words: citrate synthase kit, OD412, 96-well plate. It is filed as biochemical, Toxoplasma gondii. Conditions: co-substrate oxaloacetate.

As a reminder, the Km is the substrate concentration at which the rate is half of its maximum.

B1: TgPrpC (Toxoplasma gondii) (protein)
chain: QSGVHVPTAPSDCAFSPDWRSVCCSQTFSAVSTTTLERQITKENSKNGIECLNAESENCFGFALLLRHRCGLHSGSVDPPLCSLTRRKPTWQRQTTAFLSSTMARQPLETSYEQRKDSEFSPGLEGVVAGESAISSVGPASLAGLTYRGYRIDDLTEKATFEEVVFLLLHDRLPTKQELDAQHQELVLARRLPPSLKACLEYFPKNSHPMDVVRTGCSMMGMLEQENAPPDQQAKIGLRLIGMYSSMLLYWYHYAHHGIRICEETDPADSVAAHFLKLLNQHSSGPHPLEVKAVDISLILYAEHDFNASTFAARVTAATRSDIYSAICSAIGTLKGPLHGGANEAAIMFLRKLRDMQQADQELESIWRHHERVMGFGHRLYKEGDPRSHIMMKVALDLAQNAPKKDPNLVQIAQHIEERMEKEKHLPANVDFPCALAYHQCGIPTDLYTPLFVLARTAGWTAHIMEQRANNRLIRPVSHYVGPPVRPFPSFEEREKLANPSEQSRSR
notes: residues 113-619 (N-terminal part removed), His-tagged fusion from pESUMO vector, expressed in E. coli Transetta (DE3), Ni2+ column
Consider B1, for which the results for the Km in data set [1] and in data set [2] were 1.661 µM and 1.169 µM, respectively.

B2: TgCS1 (Toxoplasma gondii) (protein)
chain: SARSVCGGLSNAEARAAVEAALDALAEKVQEAAEPKRELLKTLRKEHGTVVISEATLSTVCGGMRGLTAILTETSTLHAEKGILYRGLTINECLAKLPRMHKEEYPAVEGLIWFLMTGSIPTVNEVELLSNALYALSLSSASSSPSAPFIPPHVGKVLDAVPPSTHPMTQLVMAAAALQPTSELAQAYRHKTVSRHDLWKPALADALSLIAKNAVMAARIFRRSFRDGQEIDPAANFGHMMGFNSKEHQELFRLYLFLHADHEGGNVSAHAAHVVGSALSDPFLAFSAGMAGLAGPLHGLANQECLNWLRDVHCKLNGAAPTRENVKKIAEDTLASGRVIPGYGHAVLRVTDPRFTAQREFALKYLKDDELFQLLNVAYNTIPDVLLATGKVKNPYPNVDCHSGVLLQHFGITEADFYTVLFGVSRAIGIACQYVWDRILGLPIERPKSTTLDLLKAACVERKGN
notes: residues 95-559 (N-terminal part removed), His-tagged fusion from pESUMO vector, expressed in E. coli Transetta (DE3), Ni2+ column
Regarding B2, the Km was determined as 1.423 µM in data set [1] and 0.4693 µM in data set [2].
